Source: patent US20200317768A1 (published 2020)
Changes are numbered by the printed parent chain.

T1: cynomolgus monkey FcγRIIa3 extracellular domain with C-terminal His-tag (cynomolgus monkey)
T1 construct: Expressed in FreeStyle 293 cells and purified; also called cyno FcγRIIa3; cynoFcgRIIa3; not shown: C-terminal His-tag
T1 chain: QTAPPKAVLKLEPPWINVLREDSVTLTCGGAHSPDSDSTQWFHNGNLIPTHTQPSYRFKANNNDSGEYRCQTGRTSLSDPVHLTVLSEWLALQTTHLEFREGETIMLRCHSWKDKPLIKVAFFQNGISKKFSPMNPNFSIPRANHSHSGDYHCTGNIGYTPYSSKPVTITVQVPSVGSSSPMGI

T2: human FcγRIIaR extracellular domain with C-terminal His-tag (human, UniProt P12318 34-217)
T2 construct: Expressed in FreeStyle 293 cells and purified; also called human FcγRIIa (type R); FcgRIIaR; not shown: C-terminal His-tag
T2 chain: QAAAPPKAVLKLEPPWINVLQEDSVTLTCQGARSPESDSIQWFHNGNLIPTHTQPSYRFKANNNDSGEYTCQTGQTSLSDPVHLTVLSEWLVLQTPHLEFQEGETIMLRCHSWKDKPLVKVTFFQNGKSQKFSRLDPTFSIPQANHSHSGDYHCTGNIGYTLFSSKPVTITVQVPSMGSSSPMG

T3: cynomolgus monkey FcγRIIa1 extracellular domain with C-terminal His-tag (cynomolgus monkey)
T3 construct: Expressed in FreeStyle 293 cells and purified; also called cyno FcγRIIa1; cynoFcgRIIa1; not shown: C-terminal His-tag
T3 chain: T1 chain with T95P, A121T, S128A, P133H, N135D

T4: cynomolgus monkey FcγRIIb extracellular domain with C-terminal His-tag (cynomolgus monkey)
T4 construct: Expressed in FreeStyle 293 cells and purified; also called cyno FcγRIIb; cynoFcγRIIb; not shown: C-terminal His-tag
T4 chain: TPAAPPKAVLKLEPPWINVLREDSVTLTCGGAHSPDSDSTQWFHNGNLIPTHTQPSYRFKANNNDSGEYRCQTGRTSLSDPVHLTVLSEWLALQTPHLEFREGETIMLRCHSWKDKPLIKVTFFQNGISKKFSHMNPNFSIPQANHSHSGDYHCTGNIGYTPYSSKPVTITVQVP

T5: cynomolgus monkey FcγRIIIaS extracellular domain with C-terminal His-tag (cynomolgus monkey, UniProt Q8SPW2 21-206 at identity 1.00))
T5 construct: Expressed in FreeStyle 293 cells and purified; also called cyno FcγRIIIaS; cynoFcγRIIIaS; not shown: C-terminal His-tag
T5 chain: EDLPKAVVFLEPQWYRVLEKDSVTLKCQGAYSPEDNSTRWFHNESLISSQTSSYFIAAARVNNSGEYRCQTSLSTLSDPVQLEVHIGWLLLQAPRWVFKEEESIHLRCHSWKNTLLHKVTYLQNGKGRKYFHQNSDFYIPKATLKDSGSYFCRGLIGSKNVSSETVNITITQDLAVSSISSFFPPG

T6: human FcγRIIaH extracellular domain with C-terminal His-tag (human, UniProt P12318 34-217)
T6 construct: Expressed in FreeStyle 293 cells and purified; also called human FcγRIIa (type H); FcgRIIaH; not shown: C-terminal His-tag
T6 sequence: T2 chain with R134H

T7: cynomolgus monkey FcγRIIa2 extracellular domain with C-terminal His-tag (cynomolgus monkey)
T7 construct: Expressed in FreeStyle 293 cells and purified; also called cyno FcγRIIa2; cynoFcgRIIa2; not shown: C-terminal His-tag
T7 chain: T1 chain with I127K, K130N, P133H, R142Q

B1: M103205H795-MY180 / M103202L889-SK1 (antibody, human IgG1, kappa)
heavy: QVTLKESGPVLVKPTETLTLTCTVSGIDLSHDDISWVRQAPGKGLEWVGIISYAGSTYYASWAKGRLTISKDTSKNQVVLTMTNMDPVDTATYYCARGVPAYSHGGDLWGQGTLVTVSSASTKGPSVFPLAPSSKSTSGGTAALGCLVKDYFPEPVTVSWNSGALTSGVHTFPAVLQSSGLYSLSSVVTVPSSSLGTQTYICNVNHKPSNTKVDKKVEPKSCDKTHTCPPCPAPELLNGPSVFLFPPKPKDTLMISRTPEVTCVVVDVSEEDPEVKFNWYVDGVEVHNAKTKPREEQYNSTYRVVSVLTVLHQDWLNGKEYKCKVSNKALPAPIEKTISKAKGQPREPQVYTLPPSREEMTKNQVSLTCLVKGFYPSDIAVEWESNGQPENNYKTTPSVLDSDGSFFLYSKLTVDKSRWQQGNVFSCSVMHEALHNHYTQKSLSLSP
light: DIVMTQSPATLSLSPGERATLSCTSSQSVYHANWLSWFQQKPGQPPKLLIYWASTLAYGVPSRFSGSGSGTDFTLTISSLQPEDAATYYCAGGYGGGRYAFGQGTKVEIKRTVAAPSVFIFPPSDEQLKSGTASVVCLLNNFYPREAKVQWKVDNALQSGNSQESVTEQDSKDSTYSLSSTLTLSKADYEKHKVYACEVTHQGLSSPVTKSFNRGEC
notes: Position 396 variant derived from MY052, expressed with M103202L889-SK1 as light chain
B2: M103205H795-MY183 / M103202L889-SK1 (antibody, human IgG1, kappa)
heavy: B1 heavy with S398W
light: B1 light
notes: as for B1
B3: M103205H795-MY182 / M103202L889-SK1 (antibody, human IgG1, kappa)
heavy: B1 heavy with S398V
light: B1 light
notes: as for B1
B4: M103205H795-MY184 / M103202L889-SK1 (antibody, human IgG1, kappa)
heavy: B1 heavy with S398Y
light: B1 light
notes: as for B1
B5: M103205H795-MY181 / M103202L889-SK1 (antibody, human IgG1, kappa)
heavy: B1 heavy with S398T
light: B1 light
notes: as for B1

Target: T1, cynomolgus monkey FcγRIIa3 …
Assay: SPR (Biacore), antibody captured on chip, FcgR extracellular domain as analyte, 25 C

Row | Kd | Binder
1 | 12000 nM | B1
2 | 8400 nM | B2
3 | 7800 nM | B3
4 | 8400 nM | B4
5 | 9200 nM | B5

Target: T2, human FcγRIIaR extracellular domain …
Assay: as above

Row | Kd | Binder
6 | 3000 nM | B1
7 | 2100 nM | B2
8 | 2100 nM | B3
9 | 2000 nM | B4
10 | 2500 nM | B5

target: T8, human FcγRIIIaV extracellular domain with C-terminal His-tag (human, UniProt P08637 17-208); assay: as above
T8 construct: Expressed in FreeStyle 293 cells and purified; also called FcgRIIIaV; not shown: C-terminal His-tag
T8 sequence (P08637 17-208 F176V): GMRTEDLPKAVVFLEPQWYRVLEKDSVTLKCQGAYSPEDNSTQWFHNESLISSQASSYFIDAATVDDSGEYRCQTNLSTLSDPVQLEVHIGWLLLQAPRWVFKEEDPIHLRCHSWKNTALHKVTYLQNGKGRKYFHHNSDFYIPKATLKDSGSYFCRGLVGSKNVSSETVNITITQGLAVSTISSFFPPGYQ

Row | Kd | Binder
11 | 5900 nM | B1
12 | 7200 nM | B2
13 | 7000 nM | B3
14 | 6800 nM | B4
15 | 7300 nM | B5

Target: T3, cynomolgus monkey FcγRIIa1 …
Assay: as above

Row | Kd | Binder
16 | 2600 nM | B1
17 | 2100 nM | B2
18 | 2100 nM | B3
19 | 1900 nM | B4
20 | 2300 nM | B5

Target: T4, cynomolgus monkey FcγRIIb extracellular …
Assay: as above

Row | Kd | Binder
21 | 1300 nM | B1
22 | 970 nM | B2
23 | 960 nM | B3
24 | 980 nM | B4
25 | 1000 nM | B5

Target: T5, cynomolgus monkey FcγRIIIaS …
Assay: as above

Row | Kd | Binder
26 | 3100 nM | B1
27 | 3500 nM | B2
28 | 3500 nM | B3
29 | 3300 nM | B4
30 | 4100 nM | B5

target: T6, human FcγRIIaH extracellular domain …; assay: as above

Row | Kd | Binder
31 | 1700 nM | B1
32 | 1200 nM | B2
33 | 1300 nM | B3
34 | 1100 nM | B4
35 | 1300 nM | B5

Target: T7, cynomolgus monkey FcγRIIa2 …
Assay: as above

Row | Kd | Binder
36 | 2700 nM | B1
37 | 2000 nM | B2
38 | 2200 nM | B3
39 | 2000 nM | B4
40 | 2300 nM | B5
